For the assay, the target named is T1, SF3B core complex (human, UniProt O75533 453-1304; Q15393 1-1217; Q9BWJ5 1-86; Q7RTV0 1-98).
T1 construct: SF3B1 C-terminal HEAT domain, residues 453-1304; SF3B3, residues 1-1217; SF3B5, residues 1-86; PHF5A, residues 1-98; SF3B3 carries an N-terminal His6 and a TEV protease cleavage site; no cleavage step is described in the purification; also called SF3B complex; source: Tni insect cells (baculovirus), coexpressed, purified (Ni-NTA, Superdex 200 gel filtration); copies: + + +
T1 sequence (O75533 453-1304, chain 1 of 4): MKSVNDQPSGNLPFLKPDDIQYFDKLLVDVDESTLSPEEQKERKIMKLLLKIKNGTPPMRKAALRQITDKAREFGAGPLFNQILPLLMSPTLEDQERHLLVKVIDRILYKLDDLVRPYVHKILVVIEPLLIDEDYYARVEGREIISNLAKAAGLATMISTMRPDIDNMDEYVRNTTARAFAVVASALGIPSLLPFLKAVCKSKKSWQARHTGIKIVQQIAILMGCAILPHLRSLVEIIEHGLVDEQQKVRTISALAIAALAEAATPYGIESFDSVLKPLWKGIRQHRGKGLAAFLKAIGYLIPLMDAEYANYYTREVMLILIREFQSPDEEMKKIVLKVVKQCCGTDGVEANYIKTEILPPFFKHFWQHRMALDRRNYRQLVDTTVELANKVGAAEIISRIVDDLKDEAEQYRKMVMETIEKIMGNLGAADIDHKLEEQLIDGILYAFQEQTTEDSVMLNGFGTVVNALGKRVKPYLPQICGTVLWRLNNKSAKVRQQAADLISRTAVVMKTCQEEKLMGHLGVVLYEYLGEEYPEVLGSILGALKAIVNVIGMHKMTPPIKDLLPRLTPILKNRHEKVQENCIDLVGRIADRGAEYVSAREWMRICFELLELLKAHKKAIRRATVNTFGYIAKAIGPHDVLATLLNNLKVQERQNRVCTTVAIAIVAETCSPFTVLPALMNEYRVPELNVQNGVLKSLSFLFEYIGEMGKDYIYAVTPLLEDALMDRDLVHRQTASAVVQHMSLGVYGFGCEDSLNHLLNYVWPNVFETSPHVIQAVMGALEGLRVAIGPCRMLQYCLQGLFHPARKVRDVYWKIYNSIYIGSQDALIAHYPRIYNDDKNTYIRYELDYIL
T1 sequence (Q15393 whole entry, chain 2 of 4, the tested form may be a part): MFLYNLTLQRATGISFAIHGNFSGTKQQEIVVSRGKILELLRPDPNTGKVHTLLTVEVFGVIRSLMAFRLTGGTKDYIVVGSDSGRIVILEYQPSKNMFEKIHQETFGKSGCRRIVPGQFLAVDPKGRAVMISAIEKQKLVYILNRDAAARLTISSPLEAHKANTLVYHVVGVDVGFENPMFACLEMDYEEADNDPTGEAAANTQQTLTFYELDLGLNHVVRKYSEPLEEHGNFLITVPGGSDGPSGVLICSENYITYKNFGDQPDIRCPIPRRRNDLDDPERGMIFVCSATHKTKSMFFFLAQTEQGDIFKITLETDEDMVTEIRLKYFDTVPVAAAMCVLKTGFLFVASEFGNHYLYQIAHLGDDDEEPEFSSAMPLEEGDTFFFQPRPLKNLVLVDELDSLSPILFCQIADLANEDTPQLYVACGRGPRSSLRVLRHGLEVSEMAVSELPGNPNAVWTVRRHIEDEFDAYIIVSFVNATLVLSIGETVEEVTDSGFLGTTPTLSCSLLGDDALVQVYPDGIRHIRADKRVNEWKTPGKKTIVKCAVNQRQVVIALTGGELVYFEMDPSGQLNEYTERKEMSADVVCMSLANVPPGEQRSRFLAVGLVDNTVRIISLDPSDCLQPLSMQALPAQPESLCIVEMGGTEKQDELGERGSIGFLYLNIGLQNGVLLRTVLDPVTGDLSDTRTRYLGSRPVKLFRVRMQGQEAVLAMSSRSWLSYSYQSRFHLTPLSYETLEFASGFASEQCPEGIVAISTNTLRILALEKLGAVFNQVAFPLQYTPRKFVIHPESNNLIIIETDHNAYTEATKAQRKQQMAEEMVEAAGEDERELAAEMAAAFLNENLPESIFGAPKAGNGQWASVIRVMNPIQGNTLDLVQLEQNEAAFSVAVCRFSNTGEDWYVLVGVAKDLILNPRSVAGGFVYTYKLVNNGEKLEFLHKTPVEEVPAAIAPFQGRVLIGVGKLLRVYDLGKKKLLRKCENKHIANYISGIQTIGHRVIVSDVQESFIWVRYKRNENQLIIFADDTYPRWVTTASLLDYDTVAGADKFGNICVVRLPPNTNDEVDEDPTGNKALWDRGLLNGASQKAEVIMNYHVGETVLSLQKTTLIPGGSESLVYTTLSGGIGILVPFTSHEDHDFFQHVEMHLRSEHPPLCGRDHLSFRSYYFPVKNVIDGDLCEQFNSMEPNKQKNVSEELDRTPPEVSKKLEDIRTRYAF
T1 sequence (Q9BWJ5 whole entry, chain 3 of 4, the tested form may be a part): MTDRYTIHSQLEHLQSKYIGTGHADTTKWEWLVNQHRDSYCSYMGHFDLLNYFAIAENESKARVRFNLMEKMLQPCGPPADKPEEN
T1 sequence (Q7RTV0 1-98, chain 4 of 4): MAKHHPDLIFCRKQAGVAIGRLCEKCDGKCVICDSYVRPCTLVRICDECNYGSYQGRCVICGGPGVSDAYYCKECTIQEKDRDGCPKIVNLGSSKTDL
The experiment in a line: SEC; purified SF3B complex and DHX15 (113–795)–SUGP1 (433–645) heterodimer mixed at a molar ratio of 1:5, overnight at 4°C, Superose 6 Increase 10/300 in 20 mM HEPES pH 7.9, 300 mM KCl, 5% glycerol, 5 mM DTT; complex fractions rerun and peak analysed by SDS-PAGE. Conditions: both partners purified. (In gel filtration, larger molecules generally elute earlier.)

From publication PMC10760632, “Characterization of the SF3B1–SUGP1 interface reveals how numerous cancer mutations cause mRNA missplicing” (Genes & Development, 2023) come the findings set out here.

B1: DHX15 (113–795)–SUGP1 (433–645) heterodimer (complex, human)
chain 1: QCINPFTNLPHTPRYYDILKKRLQLPVWEYKDRFTDILVRHQSFVLVGETGSGKTTQIPQWCVEYMRSLPGPKRGVACTQPRRVAAMSVAQRVADEMDVMLGQEVGYSIRFEDCSSAKTILKYMTDGMLLREAMNDPLLERYGVIILDEAHERTLATDILMGVLKEVVRQRSDLKVIVMSATLDAGKFQIYFDNCPLLTIPGRTHPVEIFYTPEPERDYLEAAIRTVIQIHMCEEEEGDLLLFLTGQEEIDEACKRIKREVDDLGPEVGDIKIIPLYSTLPPQQQQRIFEPPPPKKQNGAIGRKVVVSTNIAETSLTIDGVVFVIDPGFAKQKVYNPRIRVESLLVTAISKASAQQRAGRAGRTRPGKCFRLYTEKAYKTEMQDNTYPEILRSNLGSVVLQLKKLGIDDLVHFDFMDPPAPETLMRALELLNYLAALNDDGDLTELGSMMAEFPLDPQLAKMVIASCDYNCSNEVLSITAMLSVPQCFVRPTEAKKAADEAKMRFAHIDGDHLTLLNVYHAFKQNHESVQWCYDNFINYRSLMSADNVRQQLSRIMDRFNLPRRSTDFTSRDYYINIRKALVTGYFMQVAHLERTGHYLTVKDNQVVQLHPSTVLDHKPEWVLYNEFVLTTKNYIRTCTDIKPEWLVKIAPQYYDMSNFPQCEAKRQLDRIIAKLQSKEYSQY
chain 2: GVTELSDAQKKQLKEQQEMQQMYDMIMQHKRAMQDMQLLWEKAVQQHQHGYDSDEEVDSELGTWEHQLRRMEMDKTREWAEQLTKMGRGKHFIGDFLPPDELEKFMETFKALKEGREPDYSEYKEFKLTVENIGYQMLMKMGWKEGEGLGSEGQGIKNPVNKGTTTVDGAGFGIDRPAELSKEDDEYEAFRKRMMLAYRFRPNPLNNPRRPYY
notes: DHX15 (DEAH-box helicase 15), residues 113-795, lacks the N-terminal unstructured region; DHX15 was fused with N-terminal His6, MBP and a TEV protease cleavage site; also called DHX15–SUGP1; DHX15–SUGP1 heterodimer; source: Tni insect cells (baculovirus), coexpressed, purified as in Zhang et al. 2022a
Turning to B1, the binding result was “binds”.
